Assays:
[1] = target: T1, Hydroxyacyl-CoA Dehydrogenase Trifunctional Multienzyme Complex Subunit Beta (HADHB), Q99JY0
T1 chain: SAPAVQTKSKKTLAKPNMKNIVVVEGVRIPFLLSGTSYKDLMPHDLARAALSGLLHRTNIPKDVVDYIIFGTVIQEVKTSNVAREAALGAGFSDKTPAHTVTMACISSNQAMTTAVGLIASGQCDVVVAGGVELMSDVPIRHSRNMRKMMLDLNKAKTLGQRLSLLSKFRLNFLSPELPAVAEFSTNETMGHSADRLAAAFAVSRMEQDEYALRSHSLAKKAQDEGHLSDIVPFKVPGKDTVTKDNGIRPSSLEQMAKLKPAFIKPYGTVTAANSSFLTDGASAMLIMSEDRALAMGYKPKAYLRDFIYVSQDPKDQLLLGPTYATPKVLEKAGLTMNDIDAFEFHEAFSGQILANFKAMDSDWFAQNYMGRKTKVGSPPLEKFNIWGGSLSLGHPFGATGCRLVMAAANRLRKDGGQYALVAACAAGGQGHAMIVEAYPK

[2] = target: T2, aconitase 2 (ACO2), Q99KI0
T2 chain: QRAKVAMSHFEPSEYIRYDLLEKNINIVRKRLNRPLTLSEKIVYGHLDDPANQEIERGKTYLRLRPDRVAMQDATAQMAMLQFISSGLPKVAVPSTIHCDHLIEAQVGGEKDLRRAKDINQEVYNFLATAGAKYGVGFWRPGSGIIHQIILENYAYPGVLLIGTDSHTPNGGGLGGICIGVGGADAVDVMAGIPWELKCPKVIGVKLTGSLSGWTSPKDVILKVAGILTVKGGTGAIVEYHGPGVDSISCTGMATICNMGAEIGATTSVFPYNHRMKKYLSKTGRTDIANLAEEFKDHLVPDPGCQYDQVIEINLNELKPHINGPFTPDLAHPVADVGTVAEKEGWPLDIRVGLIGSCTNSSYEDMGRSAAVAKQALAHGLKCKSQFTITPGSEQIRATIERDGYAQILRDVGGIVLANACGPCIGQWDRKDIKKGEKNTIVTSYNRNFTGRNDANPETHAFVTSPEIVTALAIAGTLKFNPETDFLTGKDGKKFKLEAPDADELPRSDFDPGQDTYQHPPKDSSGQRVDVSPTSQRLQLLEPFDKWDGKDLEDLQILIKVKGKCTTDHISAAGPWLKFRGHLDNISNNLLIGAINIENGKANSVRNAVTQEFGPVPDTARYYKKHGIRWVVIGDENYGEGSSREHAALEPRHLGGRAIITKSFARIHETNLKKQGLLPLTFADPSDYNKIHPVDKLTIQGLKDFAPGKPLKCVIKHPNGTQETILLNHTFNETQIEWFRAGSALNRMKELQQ

[3] = target: T3, aldolase A (ALDOA), P05064
T3 chain: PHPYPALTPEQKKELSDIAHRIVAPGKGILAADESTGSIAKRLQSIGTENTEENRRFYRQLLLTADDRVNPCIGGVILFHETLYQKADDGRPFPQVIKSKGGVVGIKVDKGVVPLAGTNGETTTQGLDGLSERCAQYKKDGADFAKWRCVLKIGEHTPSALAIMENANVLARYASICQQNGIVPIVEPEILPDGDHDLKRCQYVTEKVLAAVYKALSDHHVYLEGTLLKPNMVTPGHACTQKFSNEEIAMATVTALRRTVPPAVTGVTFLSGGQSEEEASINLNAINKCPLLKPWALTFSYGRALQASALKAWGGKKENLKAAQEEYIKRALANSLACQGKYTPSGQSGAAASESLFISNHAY

[4] = target: T4, enolase 1 (ENO1), P17182
T4 chain: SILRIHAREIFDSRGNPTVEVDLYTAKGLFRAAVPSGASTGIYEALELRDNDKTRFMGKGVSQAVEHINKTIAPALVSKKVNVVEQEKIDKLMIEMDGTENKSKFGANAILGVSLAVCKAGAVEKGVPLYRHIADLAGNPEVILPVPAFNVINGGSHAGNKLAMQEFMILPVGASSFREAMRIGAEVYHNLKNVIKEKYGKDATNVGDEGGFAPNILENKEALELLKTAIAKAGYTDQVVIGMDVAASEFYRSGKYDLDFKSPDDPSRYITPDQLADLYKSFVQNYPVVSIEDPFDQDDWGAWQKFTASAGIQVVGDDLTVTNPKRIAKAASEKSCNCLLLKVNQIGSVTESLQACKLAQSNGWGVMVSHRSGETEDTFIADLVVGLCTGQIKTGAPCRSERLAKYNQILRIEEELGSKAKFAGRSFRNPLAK

[5] = target: glutamate dehydrogenase (GDH), P26443
[6] = target: T5, glutaminase (GLS), D3Z7P3
T5 chain: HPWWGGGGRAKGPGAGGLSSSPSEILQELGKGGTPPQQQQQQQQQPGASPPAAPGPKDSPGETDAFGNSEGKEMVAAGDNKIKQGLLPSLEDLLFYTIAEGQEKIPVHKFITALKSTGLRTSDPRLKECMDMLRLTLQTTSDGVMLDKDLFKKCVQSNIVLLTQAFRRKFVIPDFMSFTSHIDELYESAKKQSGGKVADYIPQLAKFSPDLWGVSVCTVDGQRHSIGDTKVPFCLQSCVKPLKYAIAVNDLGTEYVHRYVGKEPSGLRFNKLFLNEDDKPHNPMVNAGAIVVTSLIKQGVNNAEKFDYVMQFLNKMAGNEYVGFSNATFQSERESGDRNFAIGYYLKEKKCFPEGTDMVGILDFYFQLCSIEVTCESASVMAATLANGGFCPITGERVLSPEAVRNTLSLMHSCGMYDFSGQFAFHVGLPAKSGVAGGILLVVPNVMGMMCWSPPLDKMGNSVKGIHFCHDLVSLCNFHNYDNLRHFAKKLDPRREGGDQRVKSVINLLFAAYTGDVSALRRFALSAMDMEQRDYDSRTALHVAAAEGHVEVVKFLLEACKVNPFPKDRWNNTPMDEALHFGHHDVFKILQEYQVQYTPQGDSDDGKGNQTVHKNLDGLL

[7] = target: glyceraldehyde-3-phosphate dehydrogenase (GAPDH), P16858
[8] = target: T6, isocitrate dehydrogenase, P54071
T6 chain: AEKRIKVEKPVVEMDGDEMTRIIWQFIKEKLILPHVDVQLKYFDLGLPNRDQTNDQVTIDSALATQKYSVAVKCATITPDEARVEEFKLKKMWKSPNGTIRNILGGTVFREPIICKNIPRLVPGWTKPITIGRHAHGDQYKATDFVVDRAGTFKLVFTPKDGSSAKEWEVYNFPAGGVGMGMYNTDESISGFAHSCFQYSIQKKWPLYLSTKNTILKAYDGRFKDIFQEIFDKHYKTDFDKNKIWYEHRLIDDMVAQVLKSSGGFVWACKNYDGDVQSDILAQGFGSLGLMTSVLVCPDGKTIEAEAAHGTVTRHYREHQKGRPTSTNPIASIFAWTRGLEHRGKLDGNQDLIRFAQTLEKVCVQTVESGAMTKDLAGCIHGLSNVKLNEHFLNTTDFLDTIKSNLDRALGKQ

[9] = target: lactate dehydrogenase (LDH), P06151
[10] = target: T7, malate dehydrogenase, P08249
T7 chain: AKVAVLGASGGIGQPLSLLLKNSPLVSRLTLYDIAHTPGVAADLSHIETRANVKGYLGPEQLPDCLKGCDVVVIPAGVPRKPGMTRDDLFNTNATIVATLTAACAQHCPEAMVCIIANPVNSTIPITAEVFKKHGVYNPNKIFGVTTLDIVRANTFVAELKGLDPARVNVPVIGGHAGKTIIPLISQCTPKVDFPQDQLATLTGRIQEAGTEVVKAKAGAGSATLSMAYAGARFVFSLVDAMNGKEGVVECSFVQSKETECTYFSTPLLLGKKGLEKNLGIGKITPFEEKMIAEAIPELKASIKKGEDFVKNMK

[11] = target: T8, phosphoglycerate kinase 1 (PGK1), P09411
T8 chain: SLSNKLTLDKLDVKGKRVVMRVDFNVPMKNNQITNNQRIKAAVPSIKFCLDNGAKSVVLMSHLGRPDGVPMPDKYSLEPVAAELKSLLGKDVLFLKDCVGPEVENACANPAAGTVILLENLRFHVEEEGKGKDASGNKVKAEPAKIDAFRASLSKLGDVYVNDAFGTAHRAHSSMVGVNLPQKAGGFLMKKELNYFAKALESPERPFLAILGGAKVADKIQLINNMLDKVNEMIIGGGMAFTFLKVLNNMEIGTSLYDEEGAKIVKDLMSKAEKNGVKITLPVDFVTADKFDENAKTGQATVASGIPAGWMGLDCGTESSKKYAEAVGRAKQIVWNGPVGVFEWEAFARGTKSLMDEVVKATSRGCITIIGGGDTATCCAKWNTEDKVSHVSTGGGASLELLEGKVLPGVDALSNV

[12] = target: pyruvate kinase M (PKM), P52480
[13] = target: succinate dehydrogenase subunit alpha (SDHA), Q8K2B3
[14] = target: succinate-CoA ligase alpha subunit (SUCLG1), Q9WUM5
succinate-CoA ligase alpha subunit (SUCLG1), Q9WUM5, sequence (Q9WUM5 35-346): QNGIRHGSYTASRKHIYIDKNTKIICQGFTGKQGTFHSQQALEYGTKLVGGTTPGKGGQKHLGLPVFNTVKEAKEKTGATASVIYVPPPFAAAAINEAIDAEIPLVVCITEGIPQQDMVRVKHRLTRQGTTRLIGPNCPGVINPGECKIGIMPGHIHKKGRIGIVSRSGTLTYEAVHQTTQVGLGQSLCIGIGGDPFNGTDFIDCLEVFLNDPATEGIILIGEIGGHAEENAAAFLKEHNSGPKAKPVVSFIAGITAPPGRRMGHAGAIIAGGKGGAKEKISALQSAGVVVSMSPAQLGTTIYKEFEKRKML

glyceraldehyde-3-phosphate dehydrogenase (GAPDH), P16858, sequence (P16858 whole entry): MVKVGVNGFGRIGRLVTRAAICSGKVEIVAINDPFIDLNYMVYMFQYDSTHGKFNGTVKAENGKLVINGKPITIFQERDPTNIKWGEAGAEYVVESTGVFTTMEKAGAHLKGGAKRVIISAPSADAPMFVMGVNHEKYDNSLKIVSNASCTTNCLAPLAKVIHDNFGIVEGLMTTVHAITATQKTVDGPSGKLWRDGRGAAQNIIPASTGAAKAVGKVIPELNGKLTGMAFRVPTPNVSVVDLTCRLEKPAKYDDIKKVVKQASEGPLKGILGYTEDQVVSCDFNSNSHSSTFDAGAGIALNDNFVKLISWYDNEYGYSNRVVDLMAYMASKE
pyruvate kinase M (PKM), P52480, sequence (P52480 whole entry): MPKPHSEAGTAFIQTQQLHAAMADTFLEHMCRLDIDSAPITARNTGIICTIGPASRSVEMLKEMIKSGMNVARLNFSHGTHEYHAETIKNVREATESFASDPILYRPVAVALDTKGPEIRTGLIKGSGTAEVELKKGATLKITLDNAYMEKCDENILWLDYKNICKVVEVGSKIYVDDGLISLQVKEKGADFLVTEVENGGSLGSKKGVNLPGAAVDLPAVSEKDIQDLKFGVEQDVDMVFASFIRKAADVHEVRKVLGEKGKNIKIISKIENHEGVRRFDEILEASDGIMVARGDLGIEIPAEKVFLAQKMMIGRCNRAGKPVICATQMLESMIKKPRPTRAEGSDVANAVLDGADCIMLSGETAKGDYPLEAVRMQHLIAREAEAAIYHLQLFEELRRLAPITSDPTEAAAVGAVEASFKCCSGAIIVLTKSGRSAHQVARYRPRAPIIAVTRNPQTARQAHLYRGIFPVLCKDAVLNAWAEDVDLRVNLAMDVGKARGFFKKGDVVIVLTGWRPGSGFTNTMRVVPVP
glutamate dehydrogenase (GDH), P26443, sequence (P26443 54-558): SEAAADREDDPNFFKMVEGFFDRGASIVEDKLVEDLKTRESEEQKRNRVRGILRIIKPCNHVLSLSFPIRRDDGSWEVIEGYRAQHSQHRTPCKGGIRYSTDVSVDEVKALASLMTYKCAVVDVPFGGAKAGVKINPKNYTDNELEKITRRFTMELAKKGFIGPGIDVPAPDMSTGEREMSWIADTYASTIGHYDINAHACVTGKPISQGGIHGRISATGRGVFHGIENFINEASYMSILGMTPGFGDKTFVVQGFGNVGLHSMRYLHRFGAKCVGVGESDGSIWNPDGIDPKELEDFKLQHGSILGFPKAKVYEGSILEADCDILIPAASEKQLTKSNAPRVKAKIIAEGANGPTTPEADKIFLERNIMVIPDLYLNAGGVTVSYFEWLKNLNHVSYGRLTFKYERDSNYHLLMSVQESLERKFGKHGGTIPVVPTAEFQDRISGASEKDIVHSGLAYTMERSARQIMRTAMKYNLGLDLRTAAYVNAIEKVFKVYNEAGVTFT
succinate dehydrogenase subunit alpha (SDHA), Q8K2B3, sequence (Q8K2B3 43-664): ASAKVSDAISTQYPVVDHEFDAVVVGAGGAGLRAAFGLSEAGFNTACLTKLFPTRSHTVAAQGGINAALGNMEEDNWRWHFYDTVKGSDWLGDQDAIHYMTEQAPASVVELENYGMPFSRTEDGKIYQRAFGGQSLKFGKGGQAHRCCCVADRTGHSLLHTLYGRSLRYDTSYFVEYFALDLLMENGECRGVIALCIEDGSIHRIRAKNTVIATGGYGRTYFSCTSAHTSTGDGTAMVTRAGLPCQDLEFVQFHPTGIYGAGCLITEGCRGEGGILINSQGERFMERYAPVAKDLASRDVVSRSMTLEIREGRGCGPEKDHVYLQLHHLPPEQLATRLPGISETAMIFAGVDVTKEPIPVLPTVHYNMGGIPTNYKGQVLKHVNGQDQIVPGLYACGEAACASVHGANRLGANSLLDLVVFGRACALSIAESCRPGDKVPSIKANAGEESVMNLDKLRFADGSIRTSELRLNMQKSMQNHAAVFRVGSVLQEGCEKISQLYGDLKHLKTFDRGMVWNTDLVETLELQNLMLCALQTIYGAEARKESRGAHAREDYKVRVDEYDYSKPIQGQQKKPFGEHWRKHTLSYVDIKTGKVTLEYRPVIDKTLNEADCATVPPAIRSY

B1: Sirt2 (protein)
chain: AEPDPSDPLETQAGKVQEAQDSDSDTEGGATGGEAEMDFLRNLFTQTLGLGSQKERLLDELTLEGVTRYMQSERCRKVICLVGAGISTSAGIPDFRSPSTGLYANLEKYHLPYPEAIFEISYFKKHPEPFFALAKELYPGQFKPTICHYFIRLLKEKGLLLRCYTQNIDTLERVAGLEPQDLVEAHGTFYTSHCVNTSCRKEYTMGWMKEKIFSEATPRCEQCQSVVKPDIVFFGENLPSRFFSCMQSDFSKVDLLIIMGTSLQVQPFASLISKAPLATPRLLINKEKTGQTDPFLGMMMGLGGGMDFDSKKAYRDVAWLGDCDQGCLALADLLGWKKELEDLVRREHANIDAQSGSQAPNPSTTISPGKSPPPAKEAARTKEKEEQQ
[1]
  acetylated peptide intensity (acetyl-lysine IP, LC-MS/MS, EIC): peptide GQQQVFKGLNDK (SEQ ID NO:12) from HADHB ... acetylation site K406 ... increased acetylation intensity in Sirt2^-/- sample versus WT
[2]
  acetylated peptide intensity (acetyl-lysine IP, LC-MS/MS, EIC): peptide NFTGRNDANPETHAFVTSPEIVTALAIAGTLKFNPETDFLTGKDGK (SEQ ID NO:7) from aconitase 2 ... acetylation site K506 ... increased acetylation intensity in Sirt2^-/- sample versus WT
[3]
  acetylated peptide intensity (acetyl-lysine IP, LC-MS/MS, EIC): peptide GILAADESTGSIAKR (SEQ ID NO:1) from aldolase A ... acetylation site K42 ... increased acetylation intensity in Sirt2^-/- sample versus WT
[4]
  acetylated peptide intensity (acetyl-lysine IP, LC-MS/MS, EIC): peptide SCNCLLLKVNQIGSVTESLQACK (SEQ ID NO:2) from enolase 1 ... acetylation site K343 ... increased acetylation intensity in Sirt2^-/- sample versus WT
[5]
  acetylated peptide intensity (acetyl-lysine IP, LC-MS/MS, EIC): peptide LTFKYER (SEQ ID NO:14) from GDH ... acetylation site K457 ... increased acetylation intensity in Sirt2^-/- sample versus WT
[6]
  acetylated peptide intensity (acetyl-lysine IP, LC-MS/MS, EIC): peptide FITALKSTG (SEQ ID NO:13) from GLS ... acetylation site K169 ... increased acetylation intensity in Sirt2^-/- sample versus WT
[7]
  acetylated peptide intensity (acetyl-lysine IP, LC-MS/MS, EIC): peptide WGEAGAEYVVESTGVFTTMEKAGAHLK (SEQ ID NO:5) from glyceraldehyde-3-phosphate dehydrogenase ... acetylation site K105 ... increased acetylation intensity in Sirt2^-/- sample versus WT
[8]
  acetylated peptide intensity (acetyl-lysine IP, LC-MS/MS, EIC): peptide NILGGTVFREPIICKNIPR (SEQ ID NO:8) from isocitrate dehydrogenase ... acetylation site K155 ... increased acetylation intensity in Sirt2^-/- sample versus WT
[9]
  acetylated peptide intensity (acetyl-lysine IP, LC-MS/MS, EIC): peptide FIIPNIVKYSPHCK (SEQ ID NO:3) from lactate dehydrogenase ... acetylation site K126 ... increased acetylation intensity in Sirt2^-/- sample versus WT
[10]
  acetylated peptide intensity (acetyl-lysine IP, LC-MS/MS, EIC): peptide ETECTYFSTPLLLGKK (SEQ ID NO:11) from malate dehydrogenase ... acetylation site K296 ... increased acetylation intensity in Sirt2^-/- sample versus WT
[11]
  acetylated peptide intensity (acetyl-lysine IP, LC-MS/MS, EIC): peptide SVVLMSHLGRPDGVPMPDKYSLEPVAAELK (SEQ ID NO:4) from phosphoglycerate kinase 1 ... acetylation site K75 ... increased acetylation intensity in Sirt2^-/- sample versus WT
[12]
  acetylated peptide intensity (acetyl-lysine IP, LC-MS/MS, EIC): peptide CCSGAIIVLTKSGR (SEQ ID NO:6) from pyruvate kinase M ... acetylation site K433 ... increased acetylation intensity in Sirt2^-/- sample versus WT
[13]
  acetylated peptide intensity (acetyl-lysine IP, LC-MS/MS, EIC): peptide ISQLYGDLKHLK (SEQ ID NO:10) from Succinate Dehydrogenase Subunit Alpha ... acetylation site K544 ... increased acetylation intensity in Sirt2^-/- sample versus WT
[14]
  acetylated peptide intensity (acetyl-lysine IP, LC-MS/MS, EIC): peptide SSDEAYAIAKK (SEQ ID NO:9) from Succinyl-CoA Ligase ... acetylation site K125 ... increased acetylation intensity in Sirt2^-/- sample versus WT

Reference: US20220017863
